Patent US20190202907A1 (180 THERAPEUTICS, published 2019)

T1: human ST2L (human, UniProt Q01638 19-328, limits assumed)
T1 construct: also called IL-1R4; IL-33Ra
T1 sequence (looked up): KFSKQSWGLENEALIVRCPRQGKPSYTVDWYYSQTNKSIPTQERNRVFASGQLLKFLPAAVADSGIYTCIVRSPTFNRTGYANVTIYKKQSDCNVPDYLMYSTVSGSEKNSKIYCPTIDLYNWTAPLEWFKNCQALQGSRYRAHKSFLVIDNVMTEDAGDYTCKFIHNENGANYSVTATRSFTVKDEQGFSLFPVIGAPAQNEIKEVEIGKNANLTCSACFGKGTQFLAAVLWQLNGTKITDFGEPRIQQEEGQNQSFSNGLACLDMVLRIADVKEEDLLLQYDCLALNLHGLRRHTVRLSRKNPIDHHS


Experiments:
cyno ST2L (cyno) = assay: affinity table; method not stated
human ST2L = target: T1, human ST2L; assay: affinity table; method not stated

| Kd (cyno ST2L (cyno)) [pM] | koff (cyno ST2L (cyno)) [s⁻¹] | kon (cyno ST2L (cyno)) [M⁻¹ s⁻¹] | Kd (human ST2L) [pM] | koff (human ST2L) [s⁻¹] | kon (human ST2L) [M⁻¹ s⁻¹] | Binder |
| --- | --- | --- | --- | --- | --- | --- |
| 29 | 0.000345 | 1.18e+07 | 37 | 0.000301 | 8.22e+06 | STLM222 (antibody, from another filing, V domains shown) VH: EVQLLESGGGLVQPGGSLRLSCAASGFTFSIYSMFWVRQAPGKGLEWVSDIGGEGGGTSYADSVKGRFTISRDNSKNTLYLQMNSLRAEDTAVYYCARDPWSTEGSFFVLDYWGQGTLVTVSS VL: EIVLTQSPATLSLSPGERATLSCRASQSVDDDLAWYQQKPGQAPRLLIYDASNRATGIPARFSGSGSGTDFTLTISSLEPEDFAVYYCQQYIGAPITFGQGTKVEIK |
| 22 | 0.00013 | 6.04e+06 | 35 | 9.61e-05 | 2.73e+06 | STLM221 (antibody, from another filing, V domains shown) VH: EVQLLESGGGLVQPGGSLRLSCAASGFTFSIYDMFWVRQAPGKGLEWVSYIRGEGGDTNYADSVKGRFTISRDNSKNTLYLQMNSLRAEDTAVYYCARDPWSTEGSFFVLDYWGQGTLVTVSS VL: EIVLTQSPATLSLSPGERATLSCRASQSVDDDLAWYQQKPGQAPRLLIYDASNRATGIPARFSGSGSGTDFTLTISSLEPEDFAVYYCQQYIGAPITFGQGTKVEIK |
| 301 | 0.0301 | 1e+08 | 90 | 0.00193 | 2.16e+07 | STLM226 (antibody, from another filing, V domains shown) VH: EVQLVQSGAEVKKPGATVKISCKVSAFNIKDDYMHWVQQAPGKGLEWMGRIDPAIGNTEYAEKFQGRVTITADTSTDTAYMELSSLRSEDTAVYYCATGDFYAMAYWGQGTLVTVSS VL: DIQMTQSPSSLSASVGDRVTITCITNTDIDDVIHWYQQKPGKAPKLLIYEGNTLRPGVPSRFSGSGSGTDFTLTISSLQPEDFATYYCLQSDNLLTFGQGTKLEIK |
| 144 | 0.0073 | 5.06e+07 | 38 | 0.000426 | 1.11e+07 | STLM230 (antibody, from another filing, V domains shown) VH: EVQLVQSGAEVKKPGATVKISCKVSAFNIKDDYMHWVQQAPGKGLEWMGRIDPAIGNTEYAEKFQGRVTITADTSTDTAYMELSSLRSEDTAVYYCATGDFYAMAYWGQGTLVTVSS VL: DIQMTQSPSSLSASVGDRVTITCITNTDIDDVIHWYQQKPGKAPKLLIYEGNTLRPGVPSRFSGSGSGTDFTLTISSLQPEDFATYYCLQSDNMLTFGQGTKLEIK |
| 155 | 0.0155 | 1e+08 | 52 | 0.00104 | 2.01e+07 | STLM228 (antibody, from another filing, V domains shown) VH: EVQLVQSGAEVKKPGATVKISCKVSAFNIKDDYMHWVQQAPGKGLEWMGRIDPAIGNTEYAEKFQGRVTITADTSTDTAYMELSSLRSEDTAVYYCATGDFYAMAYWGQGTLVTVSS VL: DIQMTQSPSTLSASVGDRVTITCITNTDIDDVIHWYQQKPGKAPKLLIYEGNTLRPGVPSRFSGSGSGTEFTLTISSLQPDDFATYYCLQSDNMLTFGQGTKLEIK |
| 294 | 0.0294 | 1e+08 | 64 | 0.0017 | 2.66e+07 | STLM227 (antibody, from another filing, V domains shown) VH: EVQLVQSGAEVKKPGATVKISCKVSAFNIKDDYMHWVQQAPGKGLEWMGRIDPAIGNTEYAEKFQGRVTITADTSTDTAYMELSSLRSEDTAVYYCATGDFYAMAYWGQGTLVTVSS VL: DIQLTQSPSFLSASVGDRVTITCITNTDIDDVIHWYQQKPGKAPKLLIYEGNTLRPGVPSRFSGSGSGTEFTLTISSLQPEDFATYYCLQSDNMLTFGQGTKLEIK |
| 80 | 0.00797 | 1e+08 | 25 | 0.000449 | 1.78e+07 | STLM232 (antibody, from another filing, V domains shown) VH: EVQLVQSGAEVKKPGATVKISCKVSAFNIKDDYMHWVQQAPGKGLEWMGRIDPAIGNTEYAEKFQGRVTITADTSTDTAYMELSSLRSEDTAVYYCATGDFYAMAYWGQGTLVTVSS VL: DIQMTQSPSSLSASVGDRVTITCITNTDIDDVIHWYQQKPGKAPKLLIYEGNTLRPGVPSRFSGSGSGTDFTFTISSLQPEDIATYYCLQSDNMLTFGQGTKLEIK |
| 85 | 0.0085 | 1e+08 | 35 | 0.000445 | 1.29e+07 | STLM229 (antibody, from another filing, V domains shown) VH: EVQLVQSGAEVKKPGATVKISCKVSAFNIKDDYMHWVQQAPGKGLEWMGRIDPAIGNTEYAEKFQGRVTITADTSTDTAYMELSSLRSEDTAVYYCATGDFYAMAYWGQGTLVTVSS VL: DIQMTQSPSSVSASVGDRVTITCITNTDIDDVIHWYQQKPGKAPKLLIYEGNTLRPGVPSRFSGSGSGTDFTLTISSLQPEDFATYYCLQSDNMLTFGQGTKLEIK |
| 172 | 0.0143 | 8.27e+07 | 46 | 0.000913 | 1.97e+07 | STLM231 (antibody, from another filing, V domains shown) VH: EVQLVQSGAEVKKPGATVKISCKVSAFNIKDDYMHWVQQAPGKGLEWMGRIDPAIGNTEYAEKFQGRVTITADTSTDTAYMELSSLRSEDTAVYYCATGDFYAMAYWGQGTLVTVSS VL: DIQMTQSPSSLSASVGDRVTITCITNTDIDDVIHWYQQKPGKVPKLLIYEGNTLRPGVPSRFSGSGSGTDFTLTISSLQPEDVATYYCLQSDNMLTFGQGTKLEIK |

The remaining lines, values behind:

| Binder | Kd (cyno ST2L (cyno)) [pM] | koff (cyno ST2L (cyno)) [s⁻¹] | kon (cyno ST2L (cyno)) [M⁻¹ s⁻¹] | Kd (human ST2L) [pM] | koff (human ST2L) [s⁻¹] | kon (human ST2L) [M⁻¹ s⁻¹] |
| --- | --- | --- | --- | --- | --- | --- |
| STLM103 (antibody, from another filing, V domains shown) VH: EVQLLESGGGLVQPGGSLRLSCAASGFTFSFYDMFWVRQAPGKGLEWVSSIRGEGGRTDYADSVKGRFTISRDNSKNTLYLQMNSLRAEDTAVYYCARDPWSTEGSFFVLDYWGQGTLVTVSS VL: EIVLTQSPATLSLSPGERATLSCRASQSVDDDLAWYQQKPGQAPRLLIYDASNRATGIPARFSGSGSGTDFTLTISSLEPEDFAVYYCQQYIGAPITFGQGTKVEIK | 31 | 0.000202 | 6.42e+06 | 41 | 0.000163 | 3.97e+06 |
| STLM220 (antibody, from another filing, V domains shown) VH: EVQLLESGGGLVQPGGSLRLSCAASGFTFSFYDMFWVRQAPGKGLEWVSDIRGEGGGTAYADSVKGRFTISRDNSKNTLYLQMNSLRAEDTAVYYCARDPWSTEGSFFVLDYWGQGTLVTVSS VL: EIVLTQSPATLSLSPGERATLSCRASQSVDDDLAWYQQKPGQAPRLLIYDASNRATGIPARFSGSGSGTDFTLTISSLEPEDFAVYYCQQYIGAPITFGQGTKVEIK | 9 | 0.00014 | 1.6e+07 | 16 | 9.53e-05 | 5.8e+06 |
| STLM218 (antibody, from another filing, V domains shown) VH: EVQLLESGGGLVQPGGSLRLSCAASGFTFSVDSMFWVRQAPGKGLEWVSSIEGNGGATYYADSVKGRFTISRDNSKNTLYLQMNSLRAEDTAVYYCARDPWSTEGSFFVLDYWGQGTLVTVSS VL: EIVLTQSPATLSLSPGERATLSCRASQSVDDDLAWYQQKPGQAPRLLIYDASNRATGIPARFSGSGSGTDFTLTISSLEPEDFAVYYCQQYIGAPITFGQGTKVEIK | 18 | 0.000265 | 1.45e+07 | 23 | 0.000224 | 9.89e+06 |
| STLM107 (antibody, from another filing, V domains shown) VH: EVQLLESGGGLVQPGGSLRLSCAASGFTFSDYAMFWVRQAPGKGLEWVSAIEGEGGETNYADSVKGRFTISRDNSKNTLYLQMNSLRAEDTAVYYCARDPWSTEGSFFVLDYWGQGTLVTVSS VL: EIVLTQSPATLSLSPGERATLSCRASQSVDDDLAWYQQKPGQAPRLLIYDASNRATGIPARFSGSGSGTDFTLTISSLEPEDFAVYYCQQYIGAPITFGQGTKVEIK | 7 | 0.00055 | 1e+08 | 12 | 0.000341 | 2.9e+07 |
| STLM108 (antibody, from another filing, V domains shown) VH: EVQLLESGGGLVQPGGSLRLSCAASGFTFSIYDMIWVRQAPGKGLEWVSTIKGEGGGTYYADSVKGRFTISRDNSKNTLYLQMNSLRAEDTAVYYCARDPWSTEGSFFVLDYWGQGTLVTVSS VL: EIVLTQSPATLSLSPGERATLSCRASQSVDDDLAWYQQKPGQAPRLLIYDASNRATGIPARFSGSGSGTDFTLTISSLEPEDFAVYYCQQYIGAPITFGQGTKVEIK | 29 | 0.000598 | 2.05e+07 | 97 | 0.000222 | 2.29e+06 |
| STLM217 (antibody, from another filing, V domains shown) VH: EVQLLESGGGLVQPGGSLRLSCAASGFTFSVYDMFWVRQAPGKGLEWVSDIKGEGGETSYADSVKGRFTISRDNSKNTLYLQMNSLRAEDTAVYYCARDPWSTEGSFFVLDYWGQGTLVTVSS VL: EIVLTQSPATLSLSPGERATLSCRASQSVDDDLAWYQQKPGQAPRLLIYDASNRATGIPARFSGSGSGTDFTLTISSLEPEDFAVYYCQQYIGAPITFGQGTKVEIK | 4 | 0.000138 | 3.81e+07 | 17 | 0.000126 | 7.27e+06 |
| STLM219 (antibody, from another filing, V domains shown) VH: EVQLLESGGGLVQPGGSLRLSCAASGFTFSGYDMFWVRQAPGKGLEWVSDIGGEGGSTNYADSVKGRFTISRDNSKNTLYLQMNSLRAEDTAVYYCARDPWSTEGSFFVLDYWGQGTLVTVSS VL: EIVLTQSPATLSLSPGERATLSCRASQSVDDDLAWYQQKPGQAPRLLIYDASNRATGIPARFSGSGSGTDFTLTISSLEPEDFAVYYCQQYIGAPITFGQGTKVEIK | 22 | 0.00023 | 1.07e+07 | 27 | 0.000201 | 7.54e+06 |
